Measured values taken from US20150010920.

Biological target: EGFP-T/C1 (EGFP-E-III-F-172)

B1: protease type X (Sigma, St. Louis) (protein)
chain: ITGTSTVGVGRGVLGDQKNINTTYSTYYYLQDNTRGNGIFTYDAKYRTTLPGSLWADADNQFFASYDAPAVDAHYYAGVTYDYYKNVHNRLSYDGNNAAIRSSVHYSQGYNNAFWNGSQMVYGDGDGQTFIPLSGGIDVVAHELTHAVTDYTAGLIYQNESGAINEAISDIFGTLVEFYANKNPDWEIGEDVYTPGISGDSLRSMSDPAKYGDPDHYSKRYTGTQDNGGVHINSGIINKAAYLISQGGTHYGVSVVGIGRDKLGKIFYRALTQYLTPTSNFSQLRAAAVQSATDLYGSTSQEVASVKQAFDAVGVK
optical change / cleavage (absorbance at 397 nm, SDS-PAGE, MALDI-MS): this sensor was not cleaved by thrombin and protease type X
